Assay results as given in the DeepSol protein solubility set.

Assay: soluble on expression in E. coli; label from the status in PepcDB or PDB records
In the case of “MGSDKIHHHHHHMNVTTSTLADGREIIYFDDHELREGERVLHDSRDLPHTQPLSEIRHDPLTNTWVAYAAHRMNRTFMPPANENPLAPTTPGNLPTEIPSPTYDVVVFENRFPSFSMNIAVGEDWESYVDGIDLYPRRPALARCEVVCFTPDVDKSFKDLPVSRIRTVINAWAHRTEALSALSGVQQVFPFENRGEEIGVTLQHPHGQIYSYPFLSPRLQAIVQSAQYYAETHDGHDLFDAIIREESAVQTRVIERTEHFIVFVPAAAKWPVEAMVMPLRAVADFTELTDVERDDLAALLKRLYTAVDSFFEGVTKTPYIAGWTQAPVDPALRPFGRLHLQLFSLMRSPNRMKFLAGSESSQGVWINDTTPERIAQRFKEVWPHATLD”, the “soluble on expression in E. coli” value was “not soluble”.
With “MGSDKIHHHHHHMNVYEKGNGVILEGVTDFDPVHIFECGQCFRWHKQEDGSYTGVAKGRILNVKKENDKIYLNNTNLKEFNSIWYNYFDLGTDYTEIKNKLKNMDEYLNKATEFGWGIRILRQDGWEMLISFIISSNNRIPMIQRAIENLSRKFGKYIGEYEGNEYYAFPTPEELNKASQEEIRACQTGFRDKYIKSTTQAVIENNDEVSEYTNLSTEDCRKELLKFNGVGPKVCDCIALFGMQKYDSFPVDVWVKRVMQEFYIDEDMSLPKMRTYGIDKFKEMSGFAQQYLFYYARELGIGK” the “soluble on expression in E. coli” value was “not soluble”.
With “MGSDKIHHHHHHMNYEGKTKIVKVTGDYALLEFKDDITAGDGLKHDVLTGKGSICAETTAILMKYLSEKGIKTHLVEYIPPRTLKVIPLKMFPLEVVVRLKKAGSFVRRYGGAEGEDLPVPLVEFFIKDDERHDPMVCVDHLEILGIATKKQAEKMKEAAVKITLALKEFFERANFELWDIKYEFGLDKDGNVVLGDEISPDTFRLRKKGEIFDKDVYRRDLGDPLKKYREVLELCRSLNSQ” the “soluble on expression in E. coli” value was “not soluble”.
With “MGSDKIHHHHHHMNYKYYTIVILGLLAFSACEKDDIDIPATDNEVNQWIEQTMRENYLWYSELPDKSSLDFSLDPESFFKGLLSDKDGKELSDGHHYFSQLEKATVTKSIYDANNSYGFDFATSNLKDGGSTYKIAIVLYVLKDSPAEEAGLKRGDWILGVNGSLGSIQDYDVLRSGGSVSLQLGKETGNTKGFVSTRRVTLNASRTVEDSPFLKDSVYTYGNKRIGYLMYNHFASGPDEYDYSDTSYNLYLQQLFEKFKSRNVNEFVLDLRYNGGGLVNCAQLLASLLVRENVLGEPLCIMEYNDKNSNKNETLPLLKTTEVMAGNLNLQRLFVLTGSTTASASELIINSLRSYLDVRVIGKQTFGKTVGMTIYNESKKYGWILSPVTFHIYNKDREADYEDGFHPDVAIDEFKSDLAEFGDLKDPLLGQAIYEITGQSPLLRSATPRGNREIQYNPPLSYKDNLLLIPKD” the “soluble on expression in E. coli” value was “not soluble”.
With “MGSDKIHHHHHHMNYLEAEDLTTGYGRQVISEALNCSFEAGTITSIIGPNGCGKSTLLKTLARILPAEKGKVFIKNQELQHFSSKEVAQELAILSQTPENTIDLSVFDLVSFGRYPYQSGWKSVTTEDQEYIQWALELTGLTELARESVAILSGGQRQRVWIAMALVQDTDILILDEPTTYLDPAHQLEILNVLKRINQEHQKTIVMTIHDINLASRFSDRVIAMKEGKIINEGTPQEVITVTGLADVFAIQAEISYHSQTQRPLVLSYELMEMELDG” the “soluble on expression in E. coli” value was “not soluble”.
With “MGSDKIHHHHHHMPDLTTAPDAEILMAQPRGFCAGVDRAIEIVERALTRFGAPIYVRHEIVHNAYVVADLRRKGAVFVRELDEVPAGATVIFSAHGVSKDVRAEAASRGLNVFDATCPLVTKVHVEVGKMRAEGCEIVMIGHRGHPEVEGTMGQAEGGMLLVESVADVAGLVVADPARLAYVTQTTLSVDETLEIVAALKARFPLIREPKKQDICYATQNRQDAVKFMAPQVDVVIVVGSPNSSNSNRLRELAARLGVPAYMVDAPDQVHPEWVAGKRRIGLTAGASAPEELAQSIVARLRELGAGHVRALAGIEENMAFPLPRGLQAAATVGVTA” the “soluble on expression in E. coli” value was “not soluble”.
For “MGSDKIHHHHHHMPEQQKSVTGTSLFERYTLSQAYDEMFTAEGDIRPAYSELARLLCSISPAELQQRQRYADLTFLNQGITFTVYGNDAGVERVFPYDLLPRIIAADEWQHIERGLHQRIVALNLFLHDVYHNENILRDGIIPRHLVYSCRHYRREMRGLTVPRGVYTAIVGTDLVRLPDGQFVVLEDNLRVPSGVSYMLTNRAVMKRALPRLFGAYGVRPIDHYGQALLATLRALAPAHRPEPTIVLLTPGVFNSAYFEHTFLARQMGIELVEGRDLLVHNNIVYMRTTKGLQRVDVIYRRIDDDFLDPMIFRPDSVLGVPGLFNAYRAGTVVLANAIGTGVADDKAIYAYVPDIIRYYLGEEPILPNVTTYLCDRPDECAYVLEHLGDLVVKAVGESGGYDMLIGPHSTREEQAQFAERIRAQPRNYIAQPTLQLSQAPCFIDGVIEPRHVDLRPFVLFDGERTTIVPGGLTRVALRRGSLVVNSSQGGGSKDTWVLY”, the “soluble on expression in E. coli” value was “not soluble”.
In the case of “MGSDKIHHHHHHMPGASPWRALVGGVKGQPQGTGMDRIGPAERPILSEGAKRVTADLLQTINTIYDCVGDELDHHRCLAAIGEAVDGTSLSVGEVFPFFGRIRLIANYCVPEDAARIMVDSFSTIESNSFMKNLPRFPEGVPFMRRTFVSDEEHYQSDIYKLASEPWGLHSEGATIFSKSIVSAKFCGFFRLPGKAELDIHDLSKLAILNGHYMKAMKFQDRISGLETALLRANNVLDLLDFGLLLFGDQKSPLYVNQAAHRILEKSDVMSLGRDGLIFSSSKSQNHYEKIFSSVVGSRSSPTKGTGGLVQVSPASFRRPYNVVVQPISSHQTGVADATIGVLIFDPNAKRTTAIELFSTSYGLTKKETQLALHLAEGLSVDEYAKSHNVSINTVRTHVRSIYEKTNTTRQPELVSLILRLTAGLNWT”, the “soluble on expression in E. coli” value was “not soluble”.
With “MGSDKIHHHHHHMPIITSYITQDDGTTTVVISGVELGNKETLLLDNGFDVEVDVSVIDPFQITGKQRRKIFALVKDIEEHTGQPMDYMRHMFIEFVRTYYGYDERISLSNCTRTQASQIIEATLDWTFYNDIPLSYKTSNLLKQDKSFLYWSTVNRNCVICGKPHADLAHYEAVGRGMNRNKMNHYDKHVLALCREHHNEQHAIGVKSFDDKYHLHDSWIKVDERLNKMLKGEKKE” the “soluble on expression in E. coli” value was “not soluble”.
In the case of “MGSDKIHHHHHHMPIKVNMFSSASKVKGQGVGSAYEELIRLLKTHFPKQIDVSINKFTKADISHYHTIDPNFYLSTFSKKRGIKVGYVHFLPETIEGSLNIPQPFRSIFYKYIISFYKRMDHIVVVNPTFIDKLVAYGISRDIITYIPNFVRKNEFYRFTEANRDAVRERLEVNNRFTVLGIGQVQERKGVKDFIKLAENNPDKYFIWAGGFSFGRLTDGYADLKQVVDNPPRNLKFTGIVDRNALVEYYNAADLFLLPSYNELFPMSVLEAFSCGVPVMLRDLELYHSIIKGYYIPTQDYEDMNTQLKLVSEDKERLNKFKQLSDEASEEYSEDHLADIWLDFYSSLTK”, the “soluble on expression in E. coli” value was “not soluble”.
With “MGSDKIHHHHHHMPKLGFVQVEVSTRCQLSCLMCPKSCFSDEWIAKDMNMETFRLIPFKKFHYAHLQGWGEPLLNPNIGEMVDIAAKSCKVGLTTNGLLIDHHIDSILKLDLLAVSVASGDARQHERVRGCSLEKLAGNIKLVSESRGKRPKIVIATMMLKSTIESLPKLIDFAAECGADEVIANNLDYIPSKELVGEEVFGLTADKDVEKAVEQAGKRAEELGIGFIAKPRLMEEALVCAENPVENCVVAVDGRIAPCAYLNLPTASETIPRWFRGRTVEVPKVYFSSFKEWLKSDFRDTFKRRLQVLHQSLPTELPPLPQPCRTCYKAYSV” the “soluble on expression in E. coli” value was “not soluble”.
In the case of “MGSDKIHHHHHHMPLSIITNTFAGNPLDRDSERRGDEAFLAEKLADPESLAVALWNGKPLVEDILGEDGKPTGVQIAYLRADMAQDLAGGSEKLLYMGLWKDIAVFAVDIEGAADPAEGPLQGLGRFEELRGAAASMPPADAGILATAKSMFEWRRRHRWCSACGQKTEVSDGGWKRVCPSCEAEHFPRTDPVAIMLAIHDGKCLLGRQAMWPQGMFSALAGFIEPGETIEEACARELQEEAGLKATAVRYHSSQPWPWPSSLMMGLIAEVDSDEAAPDQTELEEVRWFTREEALQLIRGELDGLFAPPPLAIAHQLIKAWAEEA”, the “soluble on expression in E. coli” value was “not soluble”.
For “MGSDKIHHHHHHMPPLSIPADQYLRLSDKSQVRCYRSHFSDRMEMLAPPKNVAAYLDHHQGWFQRCAAPMEVKALDDQSYLLTLGRFGNFGFEVEPCIGLKLLPQQQGLYQIINVDLTHQDLPLCDHYDVDFKAGLKLEPSETEASNTVQQTTIVNWDLDLSVWIQLPKVITLLPDGLVQTSGDQLLRQVVRQISRRLTWKVQEDFHATHGLTCPPRRHAAF”, the “soluble on expression in E. coli” value was “not soluble”.
In the case of “MGSDKIHHHHHHMPPPVRVNWPRMRTTRRQTVTTWVGNVPVGSSHPIVVQSMTNTDTANAEATALQVAQLARAGSEIVRVTVNTREAAAALPEIVARLHDLGLDVPLVGDFHYNGHLLLREYPETARLLAKYRINPGNVGAGQHHDANFATMIEVAKTYGKPVRIGVNWGSLDQQVLARLMDENARRGSPKSGTDVMIDAMVTSALESAAYAEGLGLPHDRIIISVKVSSAPELWQVYRQLAPLCDYPLHLGLTEAGMGMKGMVASSVALAPLLSEGIGDTIRVSLTPEPGAPRKLEVEVAQQILQSLGLRQFLPQVTSCPGCGRTTSTFFQELARKIQDYIRDAMPEWKAKYPGVEDMQVAVMGCIVNGPGESKHANIGISLPGTGEDPRAPVYQDGKLLTTLKGPRIAEDFQELLEKYVEERYGHKSAHTTVQE”, the “soluble on expression in E. coli” value was “not soluble”.
With “MGSDKIHHHHHHMPQEPESGADLPSDRTAVFPTPEGPPLPKQVTLQAAKWLVMLQAPNTTQATRAKWQQWRDVHPDHERAWQHIEASATQMRAMHSPLAHGTLIRDDTEKRHARRRAIKLLGVIAFTGTSTWLLRDNPVWREWHADHRTATSERRTIVLADGTRIMLNTASIIDVHFDNAIRLVTLIRGEILVTTAPDSASGTGQPFIVETDQGRLRALGTRFAVRQRENDSHVSLFEGMVEIRPADASDQARVLQAGEQISFTRNAIETPQTIDTHAASWVTGMLVVQEMPLTDFIDELARYRPGYLSCDPELSHLKVSGIYPIEDTERVLDMLLHVHPIEIYSLTRYWVAIRARGDR” the “soluble on expression in E. coli” value was “not soluble”.
With “MGSDKIHHHHHHMPQYTVYLAPAGYEQDLIDELGPRVIDVRGRLVRASGGPRHAAWAQNIWLDPVEMRIGSIGDAATRLKGIQRNWFLHAVDHHRRAALIAGKLPHVSARPHVFGTPAPTAPLGSWTLWEHDLVIASARCSSPFPDGEVHFVENRIDPPTRAYLKLWETFTRLGVQPAPGELCLDMGSCPGGWTWVLAGLGARVFSVDKADIAPHIAAMPNVNFCTGSAFGLDPQHAGAVDWFFSDVICYPDRLLATVQRWLERGQCRNFVCTLKFQATTDHATAAAFAAIPGSQLFHLAHNKHELTWVLLRDKA” the “soluble on expression in E. coli” value was “not soluble”.
With “MGSDKIHHHHHHMPRPRRTQISLEDTPFYHCCSRVVRRAFLCGDDSYSGKNYDHRRAWVESLLFELEAVFAIDVVAFAVMSNHLHVVLRIDVETANRWSDREVLEQWHKLFKGDELTQKFAKGGLVEADEVNRLRHSIAIYRSRLCDISWFMRCLNEPIARQANQEDNCTGRFWEGRFKSQALLDEAAVLACMTYVDLNPIRAQMADTLEQSAHTSIQLRIQAALKDEQPKNLLPFIGNERDNQPIGITFSLIDYLQLVDDTGRIIRNDKLGAITENSAKLLTRLNIHHDNWLKLTTEFGKLFHGPVGTLQELTDYCEHLEKRRRHFAKCCQHLNAG” the “soluble on expression in E. coli” value was “not soluble”.
In the case of “MGSDKIHHHHHHMPRQMRPDIADIRTGADLRQWYWRKDELVAHARTLGLKRSGAKFTILDRIAHFLDTGARDLPEAPAPKPTSDFDWHSAKLTPDTILTDSYKNTQNVRRFFKAQLGPRFAFSIPLMAWLKENSGKTLSDACAVWRDLQAERRRPGWQSDIKGHNQFNQYTRDFLAAHPDLGMDDVRRVWARKIQQPSPDGRHIYEPSDLDL”, the “soluble on expression in E. coli” value was “not soluble”.
